Measurements published in US20160185837A1, “GIP AND GLP-1 RECEPTOR DUAL-AGONISTS FOR THE TREATMENT OF DIABETES” (Medimmune Limited, priority 2013, published 2016).

B1: IP413 (Fc fusion)
chain: YSEGTFTSDYSKLLEEEASRLFIEWLLAGGGGGGSGGGGSGGGGSGGGGSATHTCPPC
B2: IP330 (Fc fusion)
chain: YSEGTFTSDYSKLLERQAIDEFIALLLKGGGGGGGSGGGGSGGGGSGGGGSGGGGSGGGGSA
B3: IP349 (Fc fusion)
chain: YSEGTFTSDYSKLLERQAIDEFIANLLKGGGGGGGSGGGGSGGGGSGGGGSGGGGSGGGGSA
B4: IP346 (Fc fusion)
chain: YSEGTFTSDYSKLLERQAIDEFIAFLLKGGGGGGGSGGGGSGGGGSGGGGSGGGGSGGGGSA
B5: IP347 (Fc fusion)
chain: YSEGTFTSDYSKLLERQAIDEFIAILLKGGGGGGGSGGGGSGGGGSGGGGSGGGGSGGGGSA
B6: IP331 (Fc fusion)
chain: YSEGTFTSDYSKLLERQAIDEFIADLLKGGGGGGGSGGGGSGGGGSGGGGSGGGGSGGGGSA
B7: IP348 (Fc fusion)
chain: YSEGTFTSDYSKLLERQAIDEFIASLLKGGGGGGGSGGGGSGGGGSGGGGSGGGGSGGGGSA
B8: IP226 (Fc fusion)
chain: YSEGTFTSDVSKLLERQAIDEFIAWLLKGGAAAGGSGSTASSGSGSATGGGGAATHTCPPCPAPEF
B9: IP223 (Fc fusion)
chain: YSEGTFTSDVSSYMEEEAIDEFIAWLLKGGAAAGGSGSTASSGSGSATGGGGAATHTCPPCPAPEF
B10: IP250 (Fc fusion)
chain: YSEGTFTSDVSIAMDRQAIDEFIAWLLKGGAAAGGSGSTASSGSGSATGGGGAATHTCPPCPAPEF
B11: IP343 (Fc fusion)
chain: YSEGTFTSDYAAAAERQAIDAFAAWLAAAAGGGGGSGGGGSGGGGSGGGGSA

Columns and labels:
Test in all cases: cell-based or functional assay
[1] = biological target: mouse GLP-1 receptor (mouse) (UniProt O35659)
[2] = biological target: human glucagon receptor (human) (UniProt P47871)
[3] = biological target: rat GLP-1 receptor (rat) (UniProt P32301)
[4] = biological target: T1, mouse GIP receptor (mouse) (UniProt Q0P543)
T1 sequence (looked up): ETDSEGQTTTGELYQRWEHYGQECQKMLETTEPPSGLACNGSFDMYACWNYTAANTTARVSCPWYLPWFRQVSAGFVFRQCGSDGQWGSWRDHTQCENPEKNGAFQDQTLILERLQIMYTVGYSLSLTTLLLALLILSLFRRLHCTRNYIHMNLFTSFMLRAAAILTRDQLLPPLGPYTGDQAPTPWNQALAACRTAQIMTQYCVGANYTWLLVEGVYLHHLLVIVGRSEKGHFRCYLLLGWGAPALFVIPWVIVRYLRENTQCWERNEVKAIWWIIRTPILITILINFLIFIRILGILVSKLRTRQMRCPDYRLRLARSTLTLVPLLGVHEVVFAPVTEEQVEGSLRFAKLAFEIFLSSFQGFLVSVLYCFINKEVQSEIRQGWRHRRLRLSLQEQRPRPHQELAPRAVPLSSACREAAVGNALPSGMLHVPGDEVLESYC

[5] = biological target: T2, rat GIP receptor (rat) (UniProt P43219)
T2 sequence (looked up): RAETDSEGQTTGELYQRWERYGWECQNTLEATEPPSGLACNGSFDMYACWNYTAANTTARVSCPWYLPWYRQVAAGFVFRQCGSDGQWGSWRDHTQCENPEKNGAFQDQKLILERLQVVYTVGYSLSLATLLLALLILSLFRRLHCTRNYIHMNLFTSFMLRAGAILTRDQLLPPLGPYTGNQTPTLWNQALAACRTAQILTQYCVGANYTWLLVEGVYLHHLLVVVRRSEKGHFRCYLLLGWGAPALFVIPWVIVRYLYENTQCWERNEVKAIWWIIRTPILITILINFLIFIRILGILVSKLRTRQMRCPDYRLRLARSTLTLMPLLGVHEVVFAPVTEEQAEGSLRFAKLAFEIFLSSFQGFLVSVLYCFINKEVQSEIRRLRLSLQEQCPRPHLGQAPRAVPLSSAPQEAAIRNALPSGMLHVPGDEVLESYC

[6] = biological target: human GLP-1 receptor (human) (UniProt P43220)
[7] = biological target: T3, human GIP receptor (human) (UniProt P48546)
T3 sequence (looked up): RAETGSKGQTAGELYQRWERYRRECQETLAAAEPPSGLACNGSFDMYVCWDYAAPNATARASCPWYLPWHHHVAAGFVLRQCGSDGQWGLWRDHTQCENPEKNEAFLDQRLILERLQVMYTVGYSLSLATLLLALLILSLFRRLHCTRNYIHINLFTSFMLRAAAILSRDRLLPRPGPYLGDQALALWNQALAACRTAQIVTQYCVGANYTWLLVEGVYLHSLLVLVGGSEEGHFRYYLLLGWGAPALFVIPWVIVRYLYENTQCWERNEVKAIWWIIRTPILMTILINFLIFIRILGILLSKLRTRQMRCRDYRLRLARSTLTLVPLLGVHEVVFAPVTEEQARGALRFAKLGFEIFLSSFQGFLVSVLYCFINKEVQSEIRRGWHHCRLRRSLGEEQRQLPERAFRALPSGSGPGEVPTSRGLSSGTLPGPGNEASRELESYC

rat GLP-1 receptor (rat), sequence (P32301 22-463): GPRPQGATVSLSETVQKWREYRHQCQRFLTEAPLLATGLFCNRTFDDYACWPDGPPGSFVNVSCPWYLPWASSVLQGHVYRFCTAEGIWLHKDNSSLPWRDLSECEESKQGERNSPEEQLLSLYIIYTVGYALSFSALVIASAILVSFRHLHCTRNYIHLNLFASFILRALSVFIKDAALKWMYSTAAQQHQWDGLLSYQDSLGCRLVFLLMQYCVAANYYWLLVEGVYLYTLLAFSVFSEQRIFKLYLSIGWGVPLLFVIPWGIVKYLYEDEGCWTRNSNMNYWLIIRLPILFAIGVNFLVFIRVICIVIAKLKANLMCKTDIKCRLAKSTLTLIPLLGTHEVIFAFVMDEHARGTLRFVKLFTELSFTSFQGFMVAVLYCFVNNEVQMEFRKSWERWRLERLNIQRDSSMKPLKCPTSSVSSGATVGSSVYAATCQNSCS
human GLP-1 receptor (human), sequence (P43220 24-463): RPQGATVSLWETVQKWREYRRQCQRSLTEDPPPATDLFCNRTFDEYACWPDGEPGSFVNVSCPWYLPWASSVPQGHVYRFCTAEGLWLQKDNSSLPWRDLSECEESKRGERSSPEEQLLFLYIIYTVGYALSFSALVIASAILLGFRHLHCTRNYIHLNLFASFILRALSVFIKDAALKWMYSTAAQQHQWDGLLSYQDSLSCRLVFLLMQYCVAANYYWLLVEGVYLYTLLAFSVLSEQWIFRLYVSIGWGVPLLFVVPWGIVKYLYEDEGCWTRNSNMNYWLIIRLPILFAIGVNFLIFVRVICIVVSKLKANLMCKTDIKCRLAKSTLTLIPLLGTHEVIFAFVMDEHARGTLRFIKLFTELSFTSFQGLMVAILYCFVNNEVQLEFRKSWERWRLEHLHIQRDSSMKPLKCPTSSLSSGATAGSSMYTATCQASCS
human glucagon receptor (human), sequence (P47871 26-477): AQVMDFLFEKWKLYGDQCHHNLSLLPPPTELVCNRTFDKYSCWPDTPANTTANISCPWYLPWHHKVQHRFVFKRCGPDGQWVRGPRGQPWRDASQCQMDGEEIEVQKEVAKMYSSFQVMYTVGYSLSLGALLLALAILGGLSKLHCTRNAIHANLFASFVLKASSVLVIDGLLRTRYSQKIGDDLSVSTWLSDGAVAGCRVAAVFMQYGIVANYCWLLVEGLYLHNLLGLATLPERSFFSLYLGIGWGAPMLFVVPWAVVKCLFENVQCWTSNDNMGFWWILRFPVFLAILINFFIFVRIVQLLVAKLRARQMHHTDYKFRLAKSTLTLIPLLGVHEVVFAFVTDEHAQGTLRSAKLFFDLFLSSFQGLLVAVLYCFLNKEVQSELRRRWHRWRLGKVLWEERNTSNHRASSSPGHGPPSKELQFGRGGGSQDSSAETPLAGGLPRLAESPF
mouse GLP-1 receptor (mouse), sequence (O35659 22-463): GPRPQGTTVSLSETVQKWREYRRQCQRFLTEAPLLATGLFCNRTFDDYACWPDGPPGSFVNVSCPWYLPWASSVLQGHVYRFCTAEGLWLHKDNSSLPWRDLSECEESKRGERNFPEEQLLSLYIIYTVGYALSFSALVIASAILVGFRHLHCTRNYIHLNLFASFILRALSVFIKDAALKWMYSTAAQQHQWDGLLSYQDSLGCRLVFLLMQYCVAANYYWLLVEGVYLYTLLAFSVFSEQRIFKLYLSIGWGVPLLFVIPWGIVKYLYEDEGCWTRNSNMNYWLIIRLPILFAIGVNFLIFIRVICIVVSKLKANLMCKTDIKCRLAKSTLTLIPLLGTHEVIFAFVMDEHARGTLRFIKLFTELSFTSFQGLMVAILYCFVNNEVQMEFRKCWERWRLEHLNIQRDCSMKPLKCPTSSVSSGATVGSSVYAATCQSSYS

Binder	cAMP EC50 [1]	cAMP EC50 [2]	cAMP EC50 [3]	cAMP EC50 [4]	cAMP EC50 [5]	cAMP EC50 [6]	cAMP EC50 [7]	cAMP EC50, hGIPr (C3) line [7]
B1	8.9 nM	7.6 nM	0.048 nM	3.7 nM	> 113 nM	0.19 nM	–	–
B2	5.5 nM	1100 nM	0.089 nM	0.45 nM	0.023 nM	0.66 nM	0.009 nM	–
B3	0.86 nM	1200 nM	0.059 nM	0.55 nM	0.014 nM	0.16 nM	0.0079 nM	–
B4	0.29 nM	180 nM	0.017 nM	0.16 nM	0.01 nM	0.08 nM	0.011 nM	0.16 nM
B5	2.5 nM	> 1490 nM	0.087 nM	0.85 nM	0.024 nM	0.75 nM	0.013 nM	–
B6	22 nM	> 1950 nM	0.31 nM	4 nM	0.06 nM	2.6 nM	0.013 nM	–
B7	0.89 nM	> 907 nM	0.037 nM	1.4 nM	0.024 nM	0.29 nM	0.011 nM	–
B8	1 nM	–	0.061 nM	7.5 nM	0.27 nM	0.2 nM	0.025 nM	–
B9	80 nM	–	18 nM	–	72 nM	16 nM	2.5 nM	–
B10	22 nM	–	2.2 nM	35 nM	5.3 nM	1.1 nM	0.11 nM	–
B11	> 2070 nM	> 2070 nM	360 nM	880 nM	110 nM	960 nM	72 nM	–
